Experimental data from US20030061635A1, “Pollen-specific novel calmodulin-binding protein, NPG1 (No Pollen Germination1), promoter, coding sequences and methods for using the same” (priority 2001, published 2003).

Assays:
[1] = test system: CaM isoforms 2, 4, and 6 from Arabidopsis; assay: Slot blot: synthetic peptides probed with 35S-labeled AtCaM isoforms; format: binding, Arabidopsis thaliana
Description: Soluble and insoluble proteins from the induced and un-induced cultures were separated on 12% SDS-polyacrylamide gels and blotted as described above. To detect the binding of the expressed proteins to ^35S-labeled AtCaM, duplicate blots were blocked for 15 min in TBS (50 mM Tris-HCl, pH 7.5, 150 mM NaCl) containing 5 mM of either CaCl2 or EGTA and 1% nonfat dry milk. The blots were then incubated for 12 h in a mixture of ^35S-labeled AtCaM isoforms at […] in the same buffers as above. The filters were then washed with the corresponding buffer and dried before exposing to X-ray film. Binding to biotinylated CaM was detected by blocking the blots in 3% gelatin in TBS/Ca/Mg or TBS/EGTA/Mg (50 mM Tris-HCl, pH 7.5, 50 mM MgCl2, 150 mM NaCl, and 5 mM of either CaCl2 or EGTA) at 30° C. […] The blots were then incubated in Vectastain ABC.HRP in TBS/Ca/Mg or TBS/EGTA/Mg for 30 min, washed 3 times, 10 min each, with the above buffer and the CaM-binding proteins were detected colorimetrically in a substrate solution (0.8 mg/ml diaminobenzidine, 0.4 mg/ml NiCl2, and 0.009% H2O2 in 100 mM Tris-HCl, pH 7.5). […]
The interaction between synthetic peptides and AtCaM isoforms was analyzed by applying synthetic peptides to a nitrocellulose membrane in a slot blot apparatus, and incubating the membrane individually with ^35S-labeled AtCaM isoforms using the method described above.

[2] = test system: 35S-labeled AtCaM; assay: Blot overlay of bacterially expressed maize NPG1 fusion proteins with 35S-CaM; format: binding, Arabidopsis thaliana; details: in the presence of Ca2+
Description: The 1.2-kb cDNA insert (named P3) containing the coding region for 242 amino acids in the carboxyl-terminal region was cloned in-frame into a pET28b expression vector. For mapping the CaM-binding domain, several truncated constructs were prepared in a pET vector. The P3 cDNA in pET28 was digested with either NcoI or BamHI to release a 168- or 717-bp fragment corresponding to the 5′ end of the cDNA. The NcoI and BamHI fragments were cloned into pET28b vector digested with the respective enzymes to generate P3/NcoI and P3/BamHI clones. The P3 clones lacking either NcoI or BamHI fragments were religated to generate PΔNcoI and PΔBamHI expression clones. […]
Soluble and insoluble proteins from the induced and un-induced cultures were separated on 12% SDS-polyacrylamide gels and blotted as described above. […] Binding to biotinylated CaM was detected by blocking the blots in 3% gelatin in TBS/Ca/Mg or TBS/EGTA/Mg (50 mM Tris-HCl, pH 7.5, 50 mM MgCl2, 150 mM NaCl, and 5 mM of either CaCl2 or EGTA) at 30° C. […] The blots were then incubated in Vectastain ABC.HRP in TBS/Ca/Mg or TBS/EGTA/Mg for 30 min, washed 3 times, 10 min each, with the above buffer and the CaM-binding proteins were detected colorimetrically in a substrate solution (0.8 mg/ml diaminobenzidine, 0.4 mg/ml NiCl2, and 0.009% H2O2 in 100 mM Tris-HCl, pH 7.5).

[3] = biological target: T1, bovine CaM (Bos taurus, UniProt P62157); assay: Calmodulin electrophoretic mobility shift assay in 4 M urea gels; format: binding
T1 construct: purchased Calbiochem-Novabiochem (San Diego, Calif.)
Description: (§1) The interaction of CaM with synthetic peptide was also analyzed using electrophoretic mobility shift of CaM in the presence of a synthetic peptide. Each of the AtCaM isoforms and bovine CaM (166 pmol) were incubated with increasing concentrations of maize NPG1-synthetic peptide (166, 332, and 664 pmol) in the presence of 4 M urea, in a buffer containing 100 mM Tris-HCl, pH 7.5, and 1 mM CaCl2 or 5 mM EGTA at room temperature for 1 h in a total volume of […]. Then, […] of sample buffer (0.375 M Tris-HCl, pH 6.8, 30% glycerol, and 0.023% bromphenol blue) was added to the samples and the mixture was electrophoresed in 12% polyacrylamide gels containing 4 M urea or 7.5% glycerol, 0.375 M Tris-HCl, pH 8.8, and either 1 mM CaCl2 or 5 mM EGTA. The gels were run at a constant voltage of 25 V per gel in an electrode buffer (25 mM Tris-HCl, pH 8.3, 192 mM glycine, and either 1 mM CaCl2 or 5 mM EGTA). The gels were stained with 0.25% Coomassie Blue R-250 in 7.5% acetic acid and 50% methanol for 1 h and then destained with 30% methanol and 7% acetic acid.

[4] = biological target: T1, bovine CaM; assay: Binding of synthetic peptide to bovine CaM; details: 'at concentrations as low as'
[5] = biological target: T2, CaM4 (Arabidopsis thaliana, UniProt P0DH96); assay: Tryptophan fluorescence spectroscopy of peptide with CaM; format: binding
T2 construct: made in house; host or cells: E. coli BL21(DE3)
Description: (§2) The tryptophan fluorescence spectra of free and CaM-bound synthetic peptide were recorded with a Hitachi-F-3010/4010 spectrofluorimeter as described in Reddy et al. (1996) supra. NPG1 peptide and AtCaMs (166 pmol each) were mixed in a […] reaction volume. The tryptophan residue in free and CaM-bound synthetic NPG1 peptide was excited at 290 nm and the emission wavelength values were recorded from 300 to 400 nm with a bandwidth of 5 nm in a 5-mm quartz cell at 25° C. Samples were incubated for 1 h at 25° C. prior to spectroscopic measurements. Corrections were made for the protein and solvent blanks.

[6] = biological target: T3, CaM6 (Arabidopsis thaliana, UniProt Q03509); assay: as above; format: binding; details: equimolar peptide and CaM6, excitation 290 nm; free peptide about 350 nm
T3 construct: made in house; host or cells: E. coli BL21(DE3)
Description: as §2

[7] = biological target: T1, bovine CaM; assay: as above; format: binding; details: equimolar peptide and bovine CaM, excitation 290 nm; free peptide about 350 nm
Description: as §2

[8] = biological target: T4, CaM2 (Arabidopsis thaliana, UniProt P0DH97); assay: as above; format: binding; details: equimolar peptide and CaM2, excitation 290 nm; free peptide about 350 nm
T4 construct: made in house; host or cells: E. coli BL21(DE3)
Description: as §2

[9] = test system: AtCaM isoforms (CaM2, CaM4, CaM6); assay: Calmodulin electrophoretic mobility shift assay in 4 M urea gels; format: binding, Arabidopsis thaliana
Description: as §1

[10] = test system: CaM; assay: CaM binding of truncated Arabidopsis NPG1
Text: To map the CaM-binding domain, a truncated version (aa 448-496 of SEQ ID NO:10) of Arabidopsis NPG1 which contains a putative calmodulin-binding domain was expressed in E. coli and tested for its ability to bind CaM. […] The CBD was further mapped to an eighteen amino acid stretch (aa 464-481) by using synthetic peptides in a gel-shift assay.

[11] = molar ratio 1:1 (peptide:CaM), CaCl2, 4 M urea
[12] = molar ratio 2:1 and 4:1 (peptide:CaM), CaCl2, 4 M urea

AKLDQGSLLRVKA-KLKVAQSSPM (AKLDQGSLLRVKAKLKVAQSSPM) [MP-2]
binding to the labeled CaM isoforms ([1]; 35S-labeled AtCaM isoforms, slot blot): Neither MP2 nor BSA showed any binding

P3/NcoI: truncated P3 fusion protein (16 kDa) from the 168-bp NcoI fragment at the 5′ end of the cDNA (GGSVSKGWRLLALILSAQQRFSEAEVATDAALDETAKLDQGSLLRVKAKLKVAQSSP; left off: small tags and cut ends)
binding to 35S-CaM [2]: produced CaM-binding peptide

VSKGWRLLALILSAQQRF [MP-1]
change in CaM mobility ([3]; in the presence of EGTA): No change in CaM mobility
CaM showing a mobility shift [3, 11]: about 50%
CaM migrating as peptide complex [3, 12]: the entire CaM migrated as a complex
lowest amount of synthetic peptide that bound CaM ([1]; CaM isoforms 2, 4, and 6, 'at concentrations as low as'): 0.5 µg
lowest amount of synthetic peptide that bound CaM [4]: 0.5 µg
wavelength of peak emission ([5]; equimolar peptide and CaM4, excitation 290 nm, free peptide about 350 nm): about 315 nm
fluorescence intensity ([5]; in the presence of CaM4, free peptide about 0.1): about 4.5
wavelength of peak emission [6]: about 315 nm
wavelength of peak emission [7]: about 315 nm
wavelength of peak emission [8]: about 315 nm
change in CaM mobility ([9]; in the presence of EGTA): No change in CaM mobility
CaM showing a mobility shift [9, 11]: about 50%
CaM migrating as peptide complex [9, 12]: the entire CaM migrated as a complex

truncated version (aa 448-496 of SEQ ID NO:10): truncated Arabidopsis NPG1 containing a putative calmodulin-binding domain, expressed in E. coli (AASRYAKEFIDATGGSVLKGWRFLALVLSAQQRFSEAEVVTDAALDETA; listed as Arabidopsis thaliana)
ability to bind CaM [10]: bound CaM in a manner similar to the full-length protein
